This is an account of results in article PMC5065627, “LWD–TCP complex activates the morning gene CCA1 in Arabidopsis”.

One series addresses GST-TCP22 (Arabidopsis thaliana, UniProt Q9C7G4 1-375). Briefly: competition; 20x/40x unlabelled mTBS against labelled TBS; 35 mM KCl, 15 mM HEPES pH 7.5, 0.4 mM EDTA, 6% glycerol, 50 ng/ul poly(dI-dC), 0.05 pmol probe, room temperature, 10 min. The conditions noted are these: protein: recombinant; tags: GST (N-terminal, pET42a); chain copies: 2; blunt.
The target in the next series is GST-TCP20 (Arabidopsis thaliana, UniProt Q9LSD5 1-314). Described as above. The note with it: protein: recombinant; tags: GST (N-terminal, pET42a); chain copies: 2; blunt.
GST-TCP20, sequence (Q9LSD5 whole entry): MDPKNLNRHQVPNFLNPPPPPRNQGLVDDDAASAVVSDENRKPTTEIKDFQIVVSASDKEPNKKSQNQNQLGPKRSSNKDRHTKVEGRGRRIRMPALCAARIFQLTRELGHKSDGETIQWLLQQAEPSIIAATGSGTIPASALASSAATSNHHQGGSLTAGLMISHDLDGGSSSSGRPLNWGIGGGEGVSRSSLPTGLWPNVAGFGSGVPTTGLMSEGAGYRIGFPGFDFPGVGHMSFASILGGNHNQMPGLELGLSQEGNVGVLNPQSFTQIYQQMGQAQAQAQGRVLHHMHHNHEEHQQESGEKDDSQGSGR

GST-TCP22, sequence (Q9C7G4 whole entry): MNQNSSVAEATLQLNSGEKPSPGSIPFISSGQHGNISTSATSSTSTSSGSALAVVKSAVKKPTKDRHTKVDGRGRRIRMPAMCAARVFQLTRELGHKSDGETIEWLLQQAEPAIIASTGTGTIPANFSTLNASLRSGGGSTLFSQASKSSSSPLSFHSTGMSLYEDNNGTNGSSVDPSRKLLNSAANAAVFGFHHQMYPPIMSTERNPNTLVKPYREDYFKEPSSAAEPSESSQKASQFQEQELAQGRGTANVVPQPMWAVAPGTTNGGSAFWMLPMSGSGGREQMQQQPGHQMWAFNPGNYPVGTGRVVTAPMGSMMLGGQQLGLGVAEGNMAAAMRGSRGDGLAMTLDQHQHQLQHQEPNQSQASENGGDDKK

B1: mTBS 50-bp CCA1 promoter competitor (dsDNA)
DNA 1: GAGATTAACGATCTTAAGTATTGAAACATAGATCAAGATATTATAACGAA
DNA 2: TTCGTTATAATATCTTGATCTATGTTTCAATACTTAAGATCGTTAATCTC
Take B1: the binding result with GST-TCP22 and in the series with GST-TCP20 was “no binding” in each case.
